Literature values as cited in paper PMC2910557.
Like-named read-outs stand apart in the source and are kept apart here.

What was measured:
[1] = molecular target: pHtrII (Natronomonas pharaonis) (UniProt P42259)
[2] = molecular target: pHtrII (Natronomonas pharaonis) (UniProt P42259); remark: listed apart in the source

Sequence of UniProt P42259 (P42259 whole entry): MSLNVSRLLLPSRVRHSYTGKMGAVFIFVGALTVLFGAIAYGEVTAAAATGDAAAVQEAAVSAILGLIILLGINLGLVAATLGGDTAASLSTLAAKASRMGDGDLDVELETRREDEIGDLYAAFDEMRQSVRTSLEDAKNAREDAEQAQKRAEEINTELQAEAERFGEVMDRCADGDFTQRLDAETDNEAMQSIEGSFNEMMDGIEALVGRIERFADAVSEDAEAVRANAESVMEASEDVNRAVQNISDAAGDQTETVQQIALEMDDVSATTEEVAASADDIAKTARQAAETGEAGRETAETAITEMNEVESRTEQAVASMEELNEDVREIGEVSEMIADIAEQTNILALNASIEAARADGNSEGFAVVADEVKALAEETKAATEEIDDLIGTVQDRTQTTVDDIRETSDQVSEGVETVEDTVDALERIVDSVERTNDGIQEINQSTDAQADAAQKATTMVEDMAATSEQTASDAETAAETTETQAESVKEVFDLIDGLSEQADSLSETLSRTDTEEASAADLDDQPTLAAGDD

Row | Kd [1] | Kd [2] | Substance
1 | 0.16 µM | – | ppR (sensory rhodopsin II) (from UniProt P42196)
2 | – | 5 µM | ppR M intermediate (ppRM) (from UniProt P42196)
